Test results taken from patent US8900593B2 (Indiana University Research and Technology Corporation, priority 2007, dated 2014).
Read-outs that look alike come from different tables or passages of the source. Where a SMILES comes first, the peptide text is derived from it. Bridges are numbered along the chain shown (N, C = ends). Where no end group is shown, it is not given here. [ ]: non-standard residue; d: D form. DMIA = not defined here; Aib = CC(C)(N)C(=O)O

What was measured:
GLP-1 receptor = biological target: T1, GLP-1 receptor (Homo sapiens, UniProt P43220); experiment: Functional assay-cAMP synthesis, luciferase reporter in HEK293 cells co-transfected with GLP-1 receptor; assay type: cell-based; conditions: for Percent Potency Relative to Native Ligand GLP-1Rec: relative to native GLP-1; for GLP 1 Receptor Relative Potency (%): Table 11, relative to GLP-1-VKGG30 (SEQ ID NO: 527) = 100
T1 construct: expressed in transfected cells; host or cells: HEK293

glucagon receptor = biological target: T2, glucagon receptor (Homo sapiens, UniProt P47871); experiment: Functional assay-cAMP synthesis, luciferase reporter in HEK293 cells co-transfected with glucagon receptor; assay type: cell-based; conditions: for Parent w/PEG % Potency Relative to Native GR / Parent w/o PEG % Potency Relative to Native GR: Table 12; for Parent w/PEG % Potency Relative to Native GR: pegylated peptide; for Parent w/o PEG % Potency Relative to Native GR: peptide without PEG; for Percent Potency Relative to Native Ligand GRec: relative to native glucagon
T2 construct: expressed in transfected cells; host or cells: HEK293

[1] = Glucagon Receptor EC50(nM), Table 10, GLP-1 17-26 glucagon analogs
[2] = read-out: cAMP Induction Glucagon Receptor EC50, Table 3, pegylated glucagon analogs

T1 sequence (P43220 24-463, species assumed): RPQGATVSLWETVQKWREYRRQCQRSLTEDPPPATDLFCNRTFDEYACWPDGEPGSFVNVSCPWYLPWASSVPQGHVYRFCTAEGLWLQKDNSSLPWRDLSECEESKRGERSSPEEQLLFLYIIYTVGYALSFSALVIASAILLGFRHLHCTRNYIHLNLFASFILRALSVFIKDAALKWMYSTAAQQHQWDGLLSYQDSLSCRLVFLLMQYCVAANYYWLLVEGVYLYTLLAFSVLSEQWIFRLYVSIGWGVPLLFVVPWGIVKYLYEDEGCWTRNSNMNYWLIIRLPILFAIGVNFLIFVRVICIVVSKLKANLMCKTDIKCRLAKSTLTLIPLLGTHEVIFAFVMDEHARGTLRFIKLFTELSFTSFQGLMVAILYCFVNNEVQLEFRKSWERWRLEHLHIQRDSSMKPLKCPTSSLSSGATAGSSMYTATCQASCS
T2 sequence (P47871 26-477): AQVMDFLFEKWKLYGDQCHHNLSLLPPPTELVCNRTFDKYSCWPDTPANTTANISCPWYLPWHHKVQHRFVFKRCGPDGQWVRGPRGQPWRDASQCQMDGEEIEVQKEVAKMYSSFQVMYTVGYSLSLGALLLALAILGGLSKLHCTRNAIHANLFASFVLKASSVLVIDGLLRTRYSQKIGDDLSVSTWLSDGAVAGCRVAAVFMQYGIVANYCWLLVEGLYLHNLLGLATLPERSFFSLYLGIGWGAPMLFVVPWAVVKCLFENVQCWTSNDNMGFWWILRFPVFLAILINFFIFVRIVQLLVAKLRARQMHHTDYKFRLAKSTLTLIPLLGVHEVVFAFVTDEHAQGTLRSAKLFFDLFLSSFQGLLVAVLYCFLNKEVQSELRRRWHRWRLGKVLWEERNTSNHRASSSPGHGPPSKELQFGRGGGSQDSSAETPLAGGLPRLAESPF

HX2QGT FTSDYSKYLDEQAAKEFIAWLMNC*a (H[Aib]QGTFTSDYSKYLDEQAAKEFIAWLMNC-NH2; also: optional PEG on Cys29) [Chimera AIB2, Cys29 (SEQ ID NO: 487), X2=AIB; C* is Cys or Cys attached to PEG]
Parent w/PEG % Potency Relative to Native GLP-1R (GLP-1 receptor; Table 12, pegylated peptide): 54.3% | Parent w/o PEG % Potency Relative to Native GLP-1R (GLP-1 receptor; Table 12, peptide without PEG): 124.6% | Parent w/PEG % Potency Relative to Native GR (glucagon receptor): 5.6% | Parent w/o PEG % Potency Relative to Native GR (glucagon receptor): 20.1%

CC[C@H](C)[C@H](NC(=O)[C@H](Cc1ccccc1)NC(=O)[C@H](CCC(=O)O)NC(=O)[C@H](CCCCN)NC(=O)[C@H](C)NC(=O)[C@H](C)NC(=O)[C@H](CCC(N)=O)NC(=O)[C@H](CCC(=O)O)NC(=O)[C@H](CC(=O)O)NC(=O)[C@H](CC(C)C)NC(=O)[C@H](Cc1ccc(O)cc1)NC(=O)[C@H](CCCCN)NC(=O)[C@H](CO)NC(=O)[C@H](Cc1ccc(O)cc1)NC(=O)[C@H](CC(=O)O)NC(=O)[C@H](CO)NC(=O)[C@@H](NC(=O)[C@H](Cc1ccccc1)NC(=O)[C@@H](NC(=O)CNC(=O)[C@H](CCC(N)=O)NC(=O)[C@H](CO)NC(=O)[C@@H](N)Cc1c[nH]cn1)[C@@H](C)O)[C@@H](C)O)C(=O)N[C@H]1CCC(=O)NCCCC[C@@H](C(=O)NCC(N)=O)NC(=O)[C@H](C(C)C)NC(=O)[C@H](CC(C)C)NC(=O)[C@H](Cc2c[nH]c3ccccc23)NC1=O [E16 GLP(17-29)-NH2 E24, K28 Lactam] (H-HSQGTFTSDYSKYLDEQAAKEFIEWLVKG-NH2; lactam 24-28; N-terminus assumed)
EC50 (GLP-1 receptor): 0.007 nM | EC50 (glucagon receptor; [1]): 0.16 nM

CSCC[C@H](NC(=O)[C@H](CC(C)C)NC(=O)[C@H](Cc1c[nH]c2ccccc12)NC(=O)[C@H](CCC(N)=O)NC(=O)[C@@H](NC(=O)[C@H](Cc1ccccc1)NC(=O)[C@H](CC(=O)O)NC(=O)[C@H](CCCCN)NC(=O)[C@H](C)NC(=O)[C@H](CCCNC(=N)N)NC(=O)[C@H](CCCNC(=N)N)NC(=O)[C@H](CCC(=O)O)NC(=O)[C@H](CC(=O)O)NC(=O)[C@H](CC(C)C)NC(=O)[C@H](Cc1ccc(O)cc1)NC(=O)[C@H](CCCCN)NC(=O)[C@H](CO)NC(=O)[C@H](Cc1ccc(O)cc1)NC(=O)[C@H](CC(=O)O)NC(=O)[C@H](CO)NC(=O)[C@@H](NC(=O)[C@H](Cc1ccccc1)NC(=O)[C@@H](NC(=O)CNC(=O)[C@H](CCC(N)=O)NC(=O)[C@H](CO)NC(=O)[C@@H](N)Cc1c[nH]cn1)[C@@H](C)O)[C@@H](C)O)C(C)C)C(=O)N[C@@H](CC(=O)O)C(=O)NCC(=O)NCC(=O)N1CCC[C@H]1C(=O)N[C@@H](CO)C(=O)N[C@@H](CO)C(=O)NCC(=O)N[C@@H](C)C(=O)N1CCC[C@H]1C(=O)N1CCC[C@H]1C(=O)N1CCC[C@H]1C(=O)N[C@@H](CO)C(N)=O
EC50 (GLP-1 receptor): 0.02 nM

HX2QGT FTSDY SKYLD EQAAK EFIC*W LMNTa
Parent w/PEG % Potency Relative to Native GLP-1R (GLP-1 receptor): 38.0% | Parent w/o PEG % Potency Relative to Native GLP-1R (GLP-1 receptor): 230.4% | Parent w/PEG % Potency Relative to Native GR (glucagon receptor): 9.2% | Parent w/o PEG % Potency Relative to Native GR (glucagon receptor): 114.2%

Glucagon Cys^17 Mal-PEG-5K [Glucagon C17 PEG 5K]
EC50 (glucagon receptor; [2]): 0.82 ± 0.15 nM

HX2QGT FTSDY SKYLD EQAAK EFIC*W LMNGG PSSGA PPPSa (H[Aib]QGTFTSDYSKYLDEQAAKEFICWLMNGGPSSGAPPPS-NH2; also: optional PEG on Cys24) [X2=AIB; C* is Cys or Cys attached to PEG]
Parent w/PEG % Potency Relative to Native GLP-1R (GLP-1 receptor; Table 12, pegylated peptide): 95.4% | Parent w/o PEG % Potency Relative to Native GLP-1R (GLP-1 receptor; Table 12, peptide without PEG): 457.8% | Parent w/PEG % Potency Relative to Native GR (glucagon receptor): 0.2% | Parent w/o PEG % Potency Relative to Native GR (glucagon receptor): 2.5%

Glucagon Cys^29 Mal-PEG-5K [Glucagon C29 PEG 5K]
EC50 (glucagon receptor; [2]): 0.96 ± 0.07 nM

HSQGTFTSDYSKYLDEQAAKEFIEWLVKG-NH2 [E16 GLP(17-29)-NH2 E24, K28]
EC50 (GLP-1 receptor): 0.007 nM | EC50 (glucagon receptor; [1]): 0.23 nM

HX2QGT FTSDY SKYLD EQAAK EFIC*W LMNTa [Chimera AIB2, Cys24 (SEQ ID NO: 486)]
Parent w/PEG % Potency Relative to Native GLP-1R (GLP-1 receptor; Table 12, pegylated peptide): 82.5% | Parent w/o PEG % Potency Relative to Native GLP-1R (GLP-1 receptor; Table 12, peptide without PEG): 160.6% | Parent w/PEG % Potency Relative to Native GR (glucagon receptor): 2.6% | Parent w/o PEG % Potency Relative to Native GR (glucagon receptor): 15.4%

SEQ ID NO: 22: glucagon analog substituting the native glutamine at position 3 with glutamic acid
selectivity for the GLP-1 receptor (GLP-1 receptor; versus glucagon receptor): approximately a tenfold selectivity

HX2QGT FTSDY SKYLD EQAAK EFIC*W LMNGG PSSGA PPPSa (H[Aib]QGTFTSDYSKYLDEQAAKEFICWLMNGGPSSGAPPPS-NH2; lactam (positions not given here); also: optional PEG on Cys24) [X2=AIB; C* is Cys or Cys attached to PEG]
Parent w/PEG % Potency Relative to Native GLP-1R (GLP-1 receptor): 96.4% | Parent w/o PEG % Potency Relative to Native GLP-1R (GLP-1 receptor): 381.5% | Parent w/PEG % Potency Relative to Native GR (glucagon receptor): 1.4% | Parent w/o PEG % Potency Relative to Native GR (glucagon receptor): 25.2%

X1SQGT FTSDY SKYLD ERRAK DFVC*W LMNGG PSSGA PPPSa ([DMIA]SQGTFTSDYSKYLDERRAKDFVCWLMNGGPSSGAPPPS-NH2; lactam (positions not given here); not fully specified; reading uncertain) [X1=DMIA; C* is Cys or Cys attached to PEG]
Parent w/PEG % Potency Relative to Native GLP-1R (GLP-1 receptor): 11.3% | Parent w/o PEG % Potency Relative to Native GLP-1R (GLP-1 receptor): 78.3% | Parent w/PEG % Potency Relative to Native GR (glucagon receptor): 12.6% | Parent w/o PEG % Potency Relative to Native GR (glucagon receptor): 116.0%

X1SQGT FTSDY SKYLD EQAAK EFIC*W LMNTa
Parent w/PEG % Potency Relative to Native GLP-1R (GLP-1 receptor): 12.5% | Parent w/o PEG % Potency Relative to Native GLP-1R (GLP-1 receptor): 82.5% | Parent w/PEG % Potency Relative to Native GR (glucagon receptor): 19.1% | Parent w/o PEG % Potency Relative to Native GR (glucagon receptor): 160.7%

HSQGTFTSDYSKYLDERRAKDFVQW LMNTa [E16, K20 Gluc-NH2] (HSQGTFTSDYSKYLDERRAKDFVQWLMNT-NH2)
Percent Potency Relative to Native Ligand GLP-1Rec (GLP-1 receptor; Table 5): 41.5% | Percent Potency Relative to Native Ligand GLP-1Rec (GLP-1 receptor; Table 9, E16/lactam analogs): 41.5% | Percent Potency Relative to Native Ligand GRec (glucagon receptor; Table 5): 130.1% | Percent Potency Relative to Native Ligand GRec (glucagon receptor; Table 9, E16/lactam analogs): 130.1%

CC[C@H](C)[C@H](NC(=O)[C@H](Cc1ccccc1)NC(=O)[C@H](CCC(=O)O)NC(=O)[C@H](CCCCN)NC(=O)[C@H](C)NC(=O)[C@H](C)NC(=O)[C@H](CCC(N)=O)NC(=O)CNC(=O)[C@H](CCC(=O)O)NC(=O)[C@H](CC(C)C)NC(=O)[C@H](Cc1ccc(O)cc1)NC(=O)[C@H](CO)NC(=O)[C@H](CO)NC(=O)[C@@H](NC(=O)[C@H](CC(=O)O)NC(=O)[C@H](CO)NC(=O)[C@@H](NC(=O)[C@H](Cc1ccccc1)NC(=O)[C@@H](NC(=O)CNC(=O)[C@H](CCC(=O)O)NC(=O)[C@H](C)NC(=O)[C@@H](N)Cc1c[nH]cn1)[C@@H](C)O)[C@@H](C)O)C(C)C)C(=O)N[C@@H](C)C(=O)N[C@@H](Cc1c[nH]c2ccccc12)C(=O)N[C@@H](CC(C)C)C(=O)N[C@H](C(=O)N[C@@H](CCCCN)C(=O)NCC(=O)NCC(N)=O)C(C)C [GLP-1-VKGG^30 (SEQ ID NO: 527), HAEGTFTSDVSSYLEGQAAKEFIAW LVKGGa, reference compound]
GLP 1 Receptor Relative Potency (%) (GLP-1 receptor): 100% | EC50 (GLP-1 receptor; read-out: GLP 1 Receptor EC50): 0.025 nM

HSQGTFTSDYSKYLDEQAAKEFIAWLMNT-NH2 [E16 GLP(17-26)Glu(27-29)-NH2, HSQGTFTSDYSKYLDEQAAKEFIAW LMNTa]
EC50 (glucagon receptor; [1]): 0.076 nM

Glucagon Cys^24 maleimido,PEG-3.4K-dimer [Glucagon C24 Dimer]
EC50 (glucagon receptor; [2]): 0.1 ± 0.05 nM

Oxyntomodulin C24 PEG 20K: oxyntomodulin Cys24 pegylated with 20K PEG
EC50 (glucagon receptor; read-out: cAMP Induction Glucagon Receptor EC50, Table 2, analogs with C-terminus extension): 0.97 ± 0.04 nM

CSCC[C@H](NC(=O)[C@H](CC(C)C)NC(=O)[C@H](Cc1c[nH]c2ccccc12)NC(=O)[C@H](CCC(N)=O)NC(=O)[C@@H](NC(=O)[C@H](Cc1ccccc1)NC(=O)[C@H](CC(=O)O)NC(=O)[C@H](CCC(N)=O)NC(=O)[C@H](C)NC(=O)[C@H](CCCNC(=N)N)NC(=O)[C@H](CCCNC(=N)N)NC(=O)[C@H](CO)NC(=O)[C@H](CC(=O)O)NC(=O)[C@H](CC(C)C)NC(=O)[C@H](Cc1ccc(O)cc1)NC(=O)[C@H](CCCCN)NC(=O)[C@H](CO)NC(=O)[C@H](Cc1ccc(O)cc1)NC(=O)[C@H](CC(=O)O)NC(=O)[C@H](CO)NC(=O)[C@@H](NC(=O)[C@H](Cc1ccccc1)NC(=O)[C@@H](NC(=O)CNC(=O)[C@H](CCC(N)=O)NC(=O)[C@H](CO)NC(=O)[C@@H](N)Cc1c[nH]cn1)[C@@H](C)O)[C@@H](C)O)C(C)C)C(=O)N[C@@H](CC(=O)O)C(=O)NCC(=O)NCC(=O)N1CCC[C@H]1C(=O)N[C@@H](CO)C(=O)N[C@@H](CO)C(=O)NCC(=O)N[C@@H](C)C(=O)N1CCC[C@H]1C(=O)N1CCC[C@H]1C(=O)N1CCC[C@H]1C(=O)N[C@@H](CO)C(N)=O [-MDGG^30 PSSGAPPPS (SEQ ID NO: 525)]
EC50 (GLP-1 receptor): 0.13 nM

CSCC[C@H](NC(=O)[C@H](CC(C)C)NC(=O)[C@H](Cc1c[nH]c2ccccc12)NC(=O)[C@H](CCC(N)=O)NC(=O)[C@@H](NC(=O)[C@H](Cc1ccccc1)NC(=O)[C@H](CC(=O)O)NC(=O)[C@H](CCC(N)=O)NC(=O)[C@H](C)NC(=O)[C@H](CCCNC(=N)N)NC(=O)[C@H](CCCNC(=N)N)NC(=O)[C@H](CO)NC(=O)[C@H](CC(=O)O)NC(=O)[C@H](CC(C)C)NC(=O)[C@H](Cc1ccc(O)cc1)NC(=O)[C@H](CCCCN)NC(=O)[C@H](CO)NC(=O)[C@H](Cc1ccc(O)cc1)NC(=O)[C@H](CC(=O)O)NC(=O)[C@H](CO)NC(=O)[C@@H](NC(=O)[C@H](Cc1ccccc1)NC(=O)[C@@H](NC(=O)CNC(=O)[C@H](CCC(N)=O)NC(=O)[C@H](CO)NC(=O)[C@@H](N)Cc1c[nH]cn1)[C@@H](C)O)[C@@H](C)O)C(C)C)C(=O)N[C@@H](CC(N)=O)C(=O)NCC(=O)NCC(=O)N1CCC[C@H]1C(=O)N[C@@H](CO)C(=O)N[C@@H](CO)C(=O)NCC(=O)N[C@@H](C)C(=O)N1CCC[C@H]1C(=O)N1CCC[C@H]1C(=O)N1CCC[C@H]1C(=O)N[C@@H](CO)C(N)=O [-MNGG^30 PSSGAPPPS (SEQ ID NO: 522)]
EC50 (GLP-1 receptor): 0.31 nM | GLP 1 Receptor Relative Potency (%) (GLP-1 receptor): 8%
